Measurements: article PMC3744072, “Analysis of the cartilage proteome from three different mouse models of genetic skeletal diseases reveals common and discrete disease signatures” (Biology Open, 2013)
Values joined by “and” are separate entries in the source; they are usually repeats but may differ in a detail not shown here. Equal entries are not always repeated.

Assays:
[1] = biological target: the molecule itself; assay: non-reducing SDS-PAGE and Western blot; total protein lysates of isolated chondrocytes of 5-day-old mice, 4-12% gels, non-reduced against reduced (0.1 M DTT); oligomers assigned by apparent size
[2] = biological target: the molecule itself; assay: non-reducing SDS-PAGE and Western blot; sequential extracts (buffer 1: 0.15 M NaCl; buffer 2: 1 M NaCl, 10 mM EDTA; buffer 3: 4 M GuHCl, 10 mM EDTA) of knee cartilage of 3-week-old mice, non-reducing 4-13.5% gels; oligomers assigned by apparent size

B1: cartilage oligomeric matrix protein (COMP), wild type, mouse (natural protein)
chain: not shown
notes: cartilage oligomeric matrix protein, mouse, endogenous in chondrocytes; The text calls the retained form consistent with a tetramer; also called wild type COMP; source: endogenous, lysate of isolated costal chondrocytes of Matn3 V194D mice
- stoichiometry N [1]: 4

B2: matrilin-4 (mouse) (natural protein, mouse (endogenous in mouse cartilage), UniProt O89029 22-624, looked up)
chain: QLQSAGPRCYNGPLDLVFMIDSSRSVRPFEFETMRQFLVGLLRSLDVGLNATRVGVIQYSSQVQSVFPLGAFSRREDMERAIRAVVPLAQGTMTGLAIQYAMNVAFSEAEGARPSEERVPRVLVIVTDGRPQDRVAEVAAQARARGIEIYAVGVQRADVGSLRTMASPPLDQHVFLVESFDLIQEFGLQFQGRLCGKDLCAELVHGCQHLCVNAPGTFYCACNSGYKLAPDNKNCLALDLCAEGTHGCEHLCVNSVDSYFCRCRAGFALQQDQRSCRAIDYCSFGNHSCQHECVSTLAGPQCRCREGHDLLPDGRSCRVRDFCNGVDHGCEFQCVSEGLSFHCLCPEGRRLQADGKSCDRCREGHVDLVLLVDGSKSVRPQNFELVKRFVNQIVDFLDVSPEGTRVGLVQFSSRVRTEFPLGRYGTAAEVKQAVLAVEYMERGTMTGLALRHMVEHSFSEAQGARPRDLNVPRVGLVFTDGRSQDDISVWAARAKEEGIVMYAVGVGKAVEEELREIASEPSELHVSYSPDFSTMTHLLENLKGSICPEEGIGAGTELRSPCECESLVEFQGRTLGALESLTQNLARLTERLEELENQLASRK
notes: matrilin-4, mouse, endogenous in cartilage
- stoichiometry N [2]: 2 and 3
